Test results reported in patent US20230340136A1, “TREATMENT OF CLL” (NOVARTIS AG, priority 2020, published 2023).

Columns and labels:
BTK^C481S = BTK^C481S (Homo sapiens, UniProt Q06187, C481S); settings: cited from earlier work
BAFF = test: Phase Ib study CVAY736Y2102: free (soluble) BAFF; set-up: species or system human; settings: in vivo
Text: (§1) The dosing cycle is 28 days. […] During the dose expansion part of the study, ibrutinib will be continued at the same dose schedule as tolerated before study enrollment, see exclusion criteria above for additional information on dose level.

BAFF receptor = target: T1, BAFF receptor (Homo sapiens, UniProt Q96RJ3); test: Phase Ib study CVAY736Y2102: BAFF receptor occupancy; format: in vivo; settings: VAY736 doses of 3 mg/kg or above
T1 construct: endogenous in cells; host or cells: B cells / tissue of CLL patients in study CVAY736Y2102 (for A6: simulated by a PK/PD model, not measured)
Text: as §1

[1] = Phase Ib study CVAY736Y2102: pharmacokinetics of VAY736; format: in vivo, human; settings: in combination with ibrutinib
Text: as §1

BTK^C481S, sequence (Q06187 whole entry C481S): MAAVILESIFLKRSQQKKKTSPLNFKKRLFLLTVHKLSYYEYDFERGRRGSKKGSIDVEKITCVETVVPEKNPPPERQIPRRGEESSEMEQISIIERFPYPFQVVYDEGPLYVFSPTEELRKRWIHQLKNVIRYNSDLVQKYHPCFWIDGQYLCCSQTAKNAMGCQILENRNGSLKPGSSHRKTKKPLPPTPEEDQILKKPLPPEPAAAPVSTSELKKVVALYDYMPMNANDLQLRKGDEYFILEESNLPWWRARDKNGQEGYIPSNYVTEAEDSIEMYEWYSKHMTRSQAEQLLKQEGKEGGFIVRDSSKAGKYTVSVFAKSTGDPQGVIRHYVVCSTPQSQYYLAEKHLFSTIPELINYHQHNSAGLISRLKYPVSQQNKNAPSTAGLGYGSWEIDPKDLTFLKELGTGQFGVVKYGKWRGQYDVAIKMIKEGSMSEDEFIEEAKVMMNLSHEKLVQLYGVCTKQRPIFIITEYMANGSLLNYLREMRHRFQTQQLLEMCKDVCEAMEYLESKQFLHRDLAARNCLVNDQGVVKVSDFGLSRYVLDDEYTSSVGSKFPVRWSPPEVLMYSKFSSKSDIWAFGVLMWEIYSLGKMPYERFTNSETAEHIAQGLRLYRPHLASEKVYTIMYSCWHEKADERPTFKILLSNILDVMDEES

| Tissue receptor occupancy (BAFF receptor) [%] | Molecule | activity against ibrutinib-resistant BTK^C481S mutation (BTK^C481S) | Free BAFF (BAFF) | VAY736 concentration: dose dependence [1] | dose at which linear PK achieved [1] [mg/kg] |
| --- | --- | --- | --- | --- | --- |
| – | C[C@H]1CN(C2COC2)CCN1c1ccc(Nc2cc(-c3ccnc(N4CCn5c(cc6c5CC(C)(C)C6)C4=O)c3CO)cn(C)c2=O)nc1 [fenebrutinib] | active against ibrutinib-resistant BTK^C481S | – | – | – |
| > 99 | VAY736: non-fucosylated human IgG1 kappa anti-BAFFR antibody, heavy chain SEQ ID NO: 9, light chain SEQ ID NO: 10 | – | accumulated to steady state with no dose relationship | increased with dose | ≥ 3 |
